Bridge positions count the residues as written; N and C are the ends. Ends that are not written are not given here.
T1: native IL-5R a/β complex on TF-1 cells (human, UniProt Q01344 21-420; P32927 17-897)
T1 sequence (looked up) 1: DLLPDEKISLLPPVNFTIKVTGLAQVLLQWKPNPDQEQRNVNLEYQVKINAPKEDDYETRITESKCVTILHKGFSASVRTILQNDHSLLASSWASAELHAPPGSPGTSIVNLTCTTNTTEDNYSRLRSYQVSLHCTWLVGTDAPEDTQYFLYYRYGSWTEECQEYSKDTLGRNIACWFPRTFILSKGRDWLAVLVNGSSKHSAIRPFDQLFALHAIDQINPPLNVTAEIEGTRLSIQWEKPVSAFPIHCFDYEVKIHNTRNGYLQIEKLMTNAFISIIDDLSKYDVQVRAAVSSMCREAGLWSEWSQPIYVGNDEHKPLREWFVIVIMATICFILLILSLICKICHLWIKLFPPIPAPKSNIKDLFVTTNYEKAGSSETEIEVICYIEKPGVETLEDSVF
T1 sequence (looked up) 2: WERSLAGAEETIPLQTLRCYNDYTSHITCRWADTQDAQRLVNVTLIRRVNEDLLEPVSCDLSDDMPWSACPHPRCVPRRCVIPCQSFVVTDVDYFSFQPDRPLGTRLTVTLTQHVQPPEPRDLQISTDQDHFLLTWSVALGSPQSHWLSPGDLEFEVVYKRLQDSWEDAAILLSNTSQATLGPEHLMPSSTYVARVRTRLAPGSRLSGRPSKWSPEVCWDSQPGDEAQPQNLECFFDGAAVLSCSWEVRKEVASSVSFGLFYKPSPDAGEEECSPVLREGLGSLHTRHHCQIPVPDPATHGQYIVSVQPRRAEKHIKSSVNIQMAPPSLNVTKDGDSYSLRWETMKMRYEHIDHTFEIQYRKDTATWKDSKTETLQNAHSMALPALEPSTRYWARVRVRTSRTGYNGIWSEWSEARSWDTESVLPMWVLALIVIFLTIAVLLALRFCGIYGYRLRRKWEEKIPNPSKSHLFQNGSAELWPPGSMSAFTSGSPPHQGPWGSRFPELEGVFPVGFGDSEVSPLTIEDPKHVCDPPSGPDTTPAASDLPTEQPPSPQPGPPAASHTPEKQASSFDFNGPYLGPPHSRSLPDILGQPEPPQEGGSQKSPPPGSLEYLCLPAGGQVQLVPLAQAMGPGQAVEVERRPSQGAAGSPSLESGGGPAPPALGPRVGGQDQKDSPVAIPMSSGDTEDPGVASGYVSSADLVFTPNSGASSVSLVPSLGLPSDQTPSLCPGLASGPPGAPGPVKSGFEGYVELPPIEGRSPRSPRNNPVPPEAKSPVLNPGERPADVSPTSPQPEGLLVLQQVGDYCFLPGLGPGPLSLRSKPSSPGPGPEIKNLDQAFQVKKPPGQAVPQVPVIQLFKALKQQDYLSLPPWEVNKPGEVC

T2: IL-5RaECD (the extracellular domain (ECD) of the human IL-5 receptor a chain) (human, UniProt Q01344 21-342, extensively glycosylated)
T2 construct: extracellular domain; also called IL-5RαECD; soluble IL-5Ra
T2 sequence (Q01344 21-342, looked up): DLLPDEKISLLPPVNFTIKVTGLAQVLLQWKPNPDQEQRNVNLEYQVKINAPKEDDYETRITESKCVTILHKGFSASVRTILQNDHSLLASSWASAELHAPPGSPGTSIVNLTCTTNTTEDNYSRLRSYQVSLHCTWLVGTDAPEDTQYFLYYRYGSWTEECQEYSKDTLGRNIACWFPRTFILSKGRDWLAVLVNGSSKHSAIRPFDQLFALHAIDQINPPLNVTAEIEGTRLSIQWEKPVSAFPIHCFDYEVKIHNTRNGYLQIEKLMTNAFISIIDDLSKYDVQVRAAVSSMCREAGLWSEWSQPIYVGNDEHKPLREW


How the values were obtained:
[1] = molecular target: T1, native IL-5R a/β complex on TF-1 cells; experiment: cell-based or functional assay
[2] = molecular target: T2, IL-5RaECD (the extracellular domain …); experiment: scintillation proximity competition assay, 20 pM [125I] IL-5, soluble IL-5Ra on beads; dimer of the printed monomer
Experimental: Binding affinities of synthetic peptides for IL-5Ra were measured in a scintillation proximity assay (SPA) using radio-iodinated IL-5. Streptavidin coated SPA beads (Amersham) were suspended in IL-5 binding buffer (phosphate buffered saline, 0.1% bovine serum albumin, 0.2% NaN3) at 2 mg beads/ml of buffer. Biotinylated mAb 179 was adsorbed onto the beads at a ratio of 2 ig Ab/mg beads by incubating the beads and antibody with agitation for at least 2 h. at 4. The beads were pelleted at 2500 rpm and resuspended at 2 mg/ml in binding buffer. Soluble IL-5Ra was then adsorbed onto the beads by diluting a solution of soluble receptor harvest 1:500 into the bead suspension and incubating with agitation for 2 hr at 4. The beads were again pelleted at 2500 rpm and resuspended at 2 mg/ml in binding buffer. Competition binding assays were carried out in 100p1 reactions in white polystyrene microtiter plates. These reactions contained 0.05 mg of receptor coated SPA beads, various concentrations of test peptide diluted in binding buffer, and 20 pM [₁₂₅I] IL-5 (Amersham). The plates were incubated at room temperature for 1 hour with agitation, then centrifuged for 5 min at 1500 rpm followed by scintillation counting on a Topcount instrument (Packard). Total binding was defined by the amount of [₁₂₅I] IL-5 bound in the absence of any competitor. Non-specific binding was defined by the amount of [₁₂₅I] IL-5 bound in the presence of 30 nM IL-5. Peptide binding data was analyzed to determine the peptide concentration required to reduce specific [₁₂₅I] IL-5 binding by 50% (IC₅₀). In each instance, the dimer has both intramolecular and intermolecular disulfide linkages as shown generically below: […]

[3] = molecular target: T2, IL-5RaECD (the extracellular domain …); experiment: competition with [125I] IL-5 for binding to IL-5Ra ECD; peptide assayed immediately after dissolving
Experimental: (§1) Binding affinities of synthetic peptides for IL-5Ra were measured in a competition binding assay using radio-iodinated IL-5. Immulon 4 (Dynatech) microtiter wells were coated with streptavidin (Sigma) by incubating 100 ul of a 50 ug/ml solution in PBS for 30 min. at 37. The wells were blocked with 200 ul of 1% BSA in PBS for 15 min. at 37, followed by 100 III of biotinylated monoclonal antibody, designated mAb 179, at 5 u. g/ml in PBS. Soluble IL-5Ra was then immobilized in the wells by incubating 100 µl of a solution of soluble receptor harvest diluted 1: 5000 in PBS/0.1% BSA for 1 hr. at 4. After washing away unbound receptor, 50 ul of various concentrations of test peptide diluted in PBS/0.1% BSA were added to the wells, followed by 50 µl of a fixed concentration of [₁₂₅I] IL-5 (Amersham). The binding reactions were incubated at 4 C for 2 hr, then washed with PBS to remove unbound [₁₂₅I] IL-5. Bound [₁₂₅I] IL-5 was determined by gamma counting.
(§2) Total binding was defined by the amount of [₁₂₅I] IL-5 bound in the absence of any competitor. Non-specific binding was defined by the amount of [₁₂₅I] IL-5 bound in the presence of 30 nM IL-5. Peptide binding data was analyzed to determine the peptide concentration required to reduce specific [₁₂₅I]

[4] = molecular target: T2, IL-5RaECD (the extracellular domain …); experiment: competition with [125I] IL-5 for binding to IL-5Ra ECD; peptide after 10 days (disulfide-linked dimer)
Experimental: as §1, §2

[5] = molecular target: T1, native IL-5R a/β complex on TF-1 cells; experiment: cell-based or functional assay; remark: listed apart in the source
[6] = molecular target: chimeric IL-5Ra/EGFR receptor (human, UniProt Q01344 21-342); experiment: cell-based or functional assay
[7] = molecular target: T2, IL-5RaECD (the extracellular domain …); experiment: competition with [125I] IL-5 for binding to IL-5Ra ECD
Experimental: as §1, §2

[8] = molecular target: T1, native IL-5R a/β complex on TF-1 cells; experiment: competition with [125I] IL-5 binding to TF-1 cells; AF 18748 as competitor

| Binder | Microphysiometer pIC50 (block of TF-1 cell response to IL-5) [1] | SPA pIC50 [2] | also measured |
| --- | --- | --- | --- |
| H-GYVCVEWARCPTCR-OH (disulfide (positions not given here); also: dimer, intramolecular and intermolecular disulfide linkages, places not given here) [dimer of (H)-GYVCVEWARCPTCR-(OH)] | 8.4 negative log of the molar IC50 | 8.2 negative log of the molar IC50 |  |
| TGGGDGYVCVEWARCPTCK (three Cys in free sulfhydryl form, T0005 prints 32-50) [AF17362 (three cysteine residues in the free sulfhydryl form)] |  |  | IC50 [3]: 120 nM |
| TGGGDGYVCVEWARCPTCK (disulfide 15-18; also: dimer, interchain disulfide between Cys9 of each chain, Formed by air oxidation in 50 mM Tris pH 7.8; said to be indistinguishable from AF18748; also called AF17362 after 10 days at room temperature; spontaneously formed disulfide-linked dimer) [dimeric form of AF17362] |  |  | IC50 [4]: 0.55 nM |
| H-EGYVCVEWARCPTCR-NH2 (disulfide (positions not given here); also: dimer, intramolecular and intermolecular disulfide linkages, places not given here) [dimer of (H)-EGYVCVEWARCPTCR-(NH2)] | 9.1 negative log of the molar IC50 | 8.1 negative log of the molar IC50 |  |
| H-TGGGDGYVCVEWARCPTCK-OH (disulfide 15-18; also: homodimer via interchain disulfide Cys9-Cys9, Synthetic dimer made with orthogonal protecting groups) [AF 18748 (a dimer of residues 32-50 of SEQ ID NO: 8)] | 9.6 negative log of the molar IC50 | 9.1 negative log of the molar IC50 | inhibition of IL-5 induced human eosinophil adhesion to immobilized IgG, IC50 [5]: 0.348 nM; EC50 (read off the curve), luciferase reporter activity of IL-5Ra/EGFR Ba/F3 cells [6]: ~0.03 nM; IC50 [7]: 0.78 nM; IC50 [8]: 0.4 nM |

From patent US20070173444A1 (AFFYMAX, published 2007)
